The record followed here is US20150064177A1 (ELAN PHARMACEUTICALS, published 2015).

The target in this assay is T1, human α4β1 integrin (human, UniProt P13612 34-1032; P05556 21-798).
T1 construct: whole, on cells; In the ELISA it is on transformed L cells; In the adhesion assays it is on human U937 monocytic cells and human Jurkat T cells; also called VLA-4; alpha-4-beta-1 integrin
In words: cell ELISA of crude Cos supernatants on L cells expressing α4β1 integrin.

Method: Briefly, L cells transformed to express a4β1 integrin on their cell surface were plated out and grown to confluence in 96-well tissue culture plates. The samples to be tested (either crude supernatants or protein-A-purified) were serially diluted and added to each well. After incubation for 1 h on ice and very gentle washing, goat anti-mouse or anti-human (gamma-chain specific) peroxidase conjugates (Sigma) were added. After a further 1 h incubation on ice and very gentle washing, the substrate (o-phenylenediamine dihydrochloride, Sigma) was added. After incubation for 30 min at room temperature, the reaction was stopped by adding 1 M H₂SO₄, and the A₄₉₀ was measured.

B1: reshaped human 21.6 antibody (La+Ha) (antibody, human IgG1, V domains shown)
VH: QVQLVQSGAEVKKPGASVKVSCKASGFNIKDTYIHWVRQAPGQRLEWMGRIDPANGYTKYDPKFQGRVTITADTSASTAYMELSSLRSEDTAVYYCAREGYYGNYGVYAMDYWGQGTLVTVSS
VL: DIQMTQSPSSLSASVGDRVTITCKTSQDINKYMAWYQQTPGKAPRLLIHYTSALQPGIPSRFSGSGSGRDYTFTISSLQPEDIATYYCLQYDNLWTFGQGTKVEIK
notes: Human IgG1 kappa, expressed in Cos cells; not shown: human gamma-1 heavy chain constant region; human kappa light chain constant region
In the case of B1, the binding result is “binds”.
